Test results: article PMC7643339

Experiments:
[1] = molecular target: mouse TLR9 ectodomain, uncleaved (without proteolytic activation) (mouse) (UniProt Q9EQU3); test: SEC; Superdex 200 10/300, 10 mM Tris pH 7.4, 0.15 M NaCl, no oligonucleotide; last step of the purification
[2] = molecular target: T1, mTLR9-ECD, GluC-cleaved (mouse, UniProt Q9EQU3 26-818); test: fluorescence anisotropy; 1:1 fit; Anisotropy: 2 or 5 nM Alexa 488 oligo, protein to 100 nM; competition in 10 mM MES pH 6.0, 0.15 M NaCl, room temperature (direct titration buffer not separately)
T1 sequence: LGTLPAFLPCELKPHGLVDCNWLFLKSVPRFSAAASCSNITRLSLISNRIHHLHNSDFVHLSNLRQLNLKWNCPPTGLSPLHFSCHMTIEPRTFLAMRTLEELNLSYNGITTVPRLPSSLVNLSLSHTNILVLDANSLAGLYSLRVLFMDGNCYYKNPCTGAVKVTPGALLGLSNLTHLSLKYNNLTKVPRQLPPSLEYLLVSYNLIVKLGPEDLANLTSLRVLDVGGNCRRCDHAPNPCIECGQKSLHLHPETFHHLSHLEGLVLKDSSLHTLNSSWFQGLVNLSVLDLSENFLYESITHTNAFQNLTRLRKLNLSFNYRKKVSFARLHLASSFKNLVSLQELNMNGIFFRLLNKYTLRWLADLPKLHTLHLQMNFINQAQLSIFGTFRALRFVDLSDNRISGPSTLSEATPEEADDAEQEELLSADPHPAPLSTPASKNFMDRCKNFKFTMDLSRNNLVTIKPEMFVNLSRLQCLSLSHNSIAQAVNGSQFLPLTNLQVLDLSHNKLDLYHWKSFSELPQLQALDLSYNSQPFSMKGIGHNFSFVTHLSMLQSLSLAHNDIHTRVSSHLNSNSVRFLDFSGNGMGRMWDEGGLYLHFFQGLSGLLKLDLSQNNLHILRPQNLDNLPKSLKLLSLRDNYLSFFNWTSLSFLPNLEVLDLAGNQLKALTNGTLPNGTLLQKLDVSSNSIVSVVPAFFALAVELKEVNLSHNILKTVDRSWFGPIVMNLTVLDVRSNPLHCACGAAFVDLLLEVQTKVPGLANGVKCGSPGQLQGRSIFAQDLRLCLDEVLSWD

[3] = molecular target: T2, mTLR9-ECD W96A/Y132A (site A mutant) (mouse, UniProt Q9EQU3 26-818, W96A;Y132A); test: mass photometry; a fraction dimerizes with ligand; Anisotropy: 2 or 5 nM Alexa 488 oligo, protein to 100 nM; competition in 10 mM MES pH 6.0, 0.15 M NaCl, room temperature (direct titration buffer not separately)
T2 sequence: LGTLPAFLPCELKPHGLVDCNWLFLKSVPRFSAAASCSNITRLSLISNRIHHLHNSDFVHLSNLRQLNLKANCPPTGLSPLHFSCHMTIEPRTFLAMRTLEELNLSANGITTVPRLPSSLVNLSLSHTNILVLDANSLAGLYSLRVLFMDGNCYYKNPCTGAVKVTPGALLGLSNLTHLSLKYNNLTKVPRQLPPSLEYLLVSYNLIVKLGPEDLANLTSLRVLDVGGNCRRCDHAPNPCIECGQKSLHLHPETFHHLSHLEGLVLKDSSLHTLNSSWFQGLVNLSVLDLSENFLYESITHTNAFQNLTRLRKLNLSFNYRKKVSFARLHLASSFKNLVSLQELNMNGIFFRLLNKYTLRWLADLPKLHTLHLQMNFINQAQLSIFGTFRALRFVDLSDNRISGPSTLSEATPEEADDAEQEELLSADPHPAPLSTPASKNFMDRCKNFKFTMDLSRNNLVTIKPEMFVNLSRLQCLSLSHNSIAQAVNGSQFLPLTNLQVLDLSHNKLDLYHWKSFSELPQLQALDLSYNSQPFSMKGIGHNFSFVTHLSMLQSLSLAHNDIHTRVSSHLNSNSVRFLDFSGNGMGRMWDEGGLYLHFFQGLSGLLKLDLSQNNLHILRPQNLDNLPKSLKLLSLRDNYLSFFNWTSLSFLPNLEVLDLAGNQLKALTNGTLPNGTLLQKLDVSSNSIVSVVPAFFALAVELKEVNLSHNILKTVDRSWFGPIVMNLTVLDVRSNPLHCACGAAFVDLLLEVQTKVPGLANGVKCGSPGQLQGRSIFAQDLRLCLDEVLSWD

[4] = molecular target: T1, mTLR9-ECD, GluC-cleaved; test: fluorescence anisotropy; apparent, 1:1 fit; Anisotropy: 2 or 5 nM Alexa 488 oligo, protein to 100 nM; competition in 10 mM MES pH 6.0, 0.15 M NaCl, room temperature (direct titration buffer not separately)
[5] = molecular target: T1, mTLR9-ECD, GluC-cleaved; test: competition; vs Alexa 488 1668-12mer; Anisotropy: 2 or 5 nM Alexa 488 oligo, protein to 100 nM; competition in 10 mM MES pH 6.0, 0.15 M NaCl, room temperature (direct titration buffer not separately)
[6] = molecular target: T1, mTLR9-ECD, GluC-cleaved; test: competition; Cheng-Prusoff; vs Alexa 488 1668-12mer; Anisotropy: 2 or 5 nM Alexa 488 oligo, protein to 100 nM; competition in 10 mM MES pH 6.0, 0.15 M NaCl, room temperature (direct titration buffer not separately)
[7] = molecular target: T1, mTLR9-ECD, GluC-cleaved; test: fluorescence anisotropy; apparent, 1:1 fit; SI text gives 9.2 nM; Anisotropy: 2 or 5 nM Alexa 488 oligo, protein to 100 nM; competition in 10 mM MES pH 6.0, 0.15 M NaCl, room temperature (direct titration buffer not separately)
[8] = molecular target: T3, mTLR9-ECD, uncleaved (mouse, UniProt Q9EQU3 26-818); test: fluorescence anisotropy; 1:1 fit; uncleaved; Anisotropy: 2 or 5 nM Alexa 488 oligo, protein to 100 nM; competition in 10 mM MES pH 6.0, 0.15 M NaCl, room temperature (direct titration buffer not separately)
T3 sequence: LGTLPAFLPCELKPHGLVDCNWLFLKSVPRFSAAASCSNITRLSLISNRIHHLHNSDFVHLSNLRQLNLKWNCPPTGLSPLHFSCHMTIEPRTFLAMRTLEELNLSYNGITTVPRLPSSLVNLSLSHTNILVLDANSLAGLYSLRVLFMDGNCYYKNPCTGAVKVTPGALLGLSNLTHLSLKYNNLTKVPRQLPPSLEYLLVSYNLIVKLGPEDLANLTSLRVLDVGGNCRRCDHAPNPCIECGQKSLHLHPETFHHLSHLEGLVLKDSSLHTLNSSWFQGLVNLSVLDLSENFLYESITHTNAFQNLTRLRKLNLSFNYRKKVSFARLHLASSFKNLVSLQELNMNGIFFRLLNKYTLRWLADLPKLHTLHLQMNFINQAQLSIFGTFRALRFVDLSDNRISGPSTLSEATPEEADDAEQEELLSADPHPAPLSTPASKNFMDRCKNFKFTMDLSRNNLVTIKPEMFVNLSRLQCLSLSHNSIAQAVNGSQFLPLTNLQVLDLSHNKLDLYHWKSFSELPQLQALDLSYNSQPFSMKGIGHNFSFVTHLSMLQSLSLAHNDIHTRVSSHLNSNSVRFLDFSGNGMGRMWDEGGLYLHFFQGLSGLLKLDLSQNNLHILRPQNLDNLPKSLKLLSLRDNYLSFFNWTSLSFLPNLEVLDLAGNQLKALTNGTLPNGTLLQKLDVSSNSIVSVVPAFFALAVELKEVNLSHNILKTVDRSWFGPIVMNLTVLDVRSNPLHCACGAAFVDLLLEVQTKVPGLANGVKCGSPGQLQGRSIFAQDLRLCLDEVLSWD

[9] = molecular target: T4, mTLR9-ECD E617A/H642A (site B mutant) (mouse, UniProt Q9EQU3 26-818, E617A;H642A); test: fluorescence anisotropy; 1:1 fit; reports site A (KA); Anisotropy: 2 or 5 nM Alexa 488 oligo, protein to 100 nM; competition in 10 mM MES pH 6.0, 0.15 M NaCl, room temperature (direct titration buffer not separately)
T4 sequence: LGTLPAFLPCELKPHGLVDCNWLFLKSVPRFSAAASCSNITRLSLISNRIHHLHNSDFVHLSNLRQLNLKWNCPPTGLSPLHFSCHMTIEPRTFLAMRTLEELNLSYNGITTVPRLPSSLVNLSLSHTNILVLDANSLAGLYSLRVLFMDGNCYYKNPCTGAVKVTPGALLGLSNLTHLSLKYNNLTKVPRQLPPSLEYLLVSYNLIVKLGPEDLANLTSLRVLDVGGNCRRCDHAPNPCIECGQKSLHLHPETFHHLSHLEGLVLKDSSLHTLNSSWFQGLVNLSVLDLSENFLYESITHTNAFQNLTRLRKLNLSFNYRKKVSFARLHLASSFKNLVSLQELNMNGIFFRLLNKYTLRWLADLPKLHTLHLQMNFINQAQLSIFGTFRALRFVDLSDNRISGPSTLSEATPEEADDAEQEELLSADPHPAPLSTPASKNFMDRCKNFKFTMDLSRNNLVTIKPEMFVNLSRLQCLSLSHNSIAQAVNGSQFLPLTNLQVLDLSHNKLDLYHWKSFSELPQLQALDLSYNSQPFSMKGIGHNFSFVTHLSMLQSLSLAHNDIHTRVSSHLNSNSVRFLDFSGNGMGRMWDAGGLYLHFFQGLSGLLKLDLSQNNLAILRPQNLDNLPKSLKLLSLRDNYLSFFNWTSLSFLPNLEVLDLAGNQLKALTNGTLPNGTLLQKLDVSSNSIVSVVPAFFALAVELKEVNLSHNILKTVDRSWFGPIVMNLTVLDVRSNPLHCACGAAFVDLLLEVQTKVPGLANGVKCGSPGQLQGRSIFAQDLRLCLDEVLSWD

For “mouse TLR9 ectodomain, uncleaved (without proteolytic activation) (from UniProt Q9EQU3 26-818) (domain or fragment)”, the stoichiometry N [1] was 2.

With CCTGGATGGGAA (ssDNA) [4084 (printed 4048 in Table 1; Alexa 488)] the Kd [2] was 29 nM.

TCCATGACGTTCCTGATGCT (ssDNA) [1668, unlabeled]: binds [3].

With TCCTTTCGTTTTTTTTTTTTTTT (ssDNA) [minM (Alexa 488)] the Kd [4] was 3.2 nM.

Work on CATGACGTTCCT (ssDNA) [1668-12mer, unlabeled] yielded an IC50 [5] of about 10 nM and a Ki [6] of 8 nM.

CATGACGTTCCT (ssDNA) [1668-12mer (Alexa 488)] showed a Kd [7] of 11 nM.

Molecule TCCATGACGTTCCTGATGCT (ssDNA) [1668 (Alexa 488)] has a Kd [4] of 2.8 nM, a Kd [8] of 12 nM and a Kd [9] of 40 nM.
